# Laboratory results reported in the RNAGym collection of RNA variant scans (doi:10.7554/elife.90254).
# B1: OR4K15 (parent)
# chain: GUUAACGGUCAUAGGCCAUGGAAACUAGGAGCACCAUUUCGCUGCCAGUGAAGAAAUGAACAAAGAAAAUCUGGGCCAGGCAGGCAUCAAAAGAAAUAGUCUUGCGCUCAACCAGAAAGUCUGUAAUCAUUUUAAGGGUA
# Variants of: B1
# Assay: self-cleavage, relative activity (ratio to wild type); higher = more cleavage; in vitro, sequencing; the parent is a self-cleaving ribozyme
row,Variant,self-cleavage
1,GUUAACGGUCAUAGGCCAUGGAAACUAGGAGCACCAUUUCCCUGCCAGUGAAGAAAUGAACAAAGAAAAUCUGGGCCAGGCAGGCAUCAAAAGAAAUGGUCUUGCGCUCAACCAGAAAGUCUGUAAUCAUUUUAAGGGUA,0.57
2,GUUAACGGUCAUAGGCCAUGGAAACUAGGAGCACCAUUUCACUGCCAGUGAAGAAAUGAACAAAGAAAAUCUGGGCCAGGCAGGCAUCAAAAGAAAUAGUCUUGCGCCCAACCAGAAAGUCUGUAAUCAUUUUAAGGGUA,0.01
3,GUUAACGGUCAUAGGCCAUGGAAACUAGGAGCACCAUUUCACUGCCAGUGAAGAAAUGAACAAAGAAAAUCUGGGCCAGGCAGGCAUCAAAAGAAAUAGUCUUGCGCUCAACCAGAAAGUCGGUAAUCAUUUUAAGGGUA,1.51
4,GUUAACGGUCAUAGGCCAUGGAAACUAGGAGCACCAUUUCACUGCCAGUGAAGAAAUGAACAAAGAAAAUCUGGGCCAGGCAGGCAUCAAAAGAAAUAGUCUUGCGCUCAACCAGGAAGUCUGUAAUCAUUUUAAGGGUA,0.63
5,GUUAACGGUCAUAGGCCAUGGAAACUAGGAGCACCAUUUCACCGCCAGUGAAGAAAUGAACAAAGAAAAUCUGGGCCAGGCAGGCAUCAAAAGAAAUAGUCUUGCGCUCAACCAGAAAGUCUGUAAUCAUUUUAAGGGUA,1.72
6,GUUAACGGUCAUAGGCCAUGGAAACUAGGAGCACCAUUUCACAGCCAGUGAAGAAAUGAACAAAGAAAAUCUGGGCCAGGCAGGCAUCAAAAGAAAUAGUCUUGCGCUCAACCAGAAAGUCUGUAAUCAUUUUAAGGGUA,1.69
7,GUUAACGGUCAUAGGCCAUGGAAACUAGGAGCACCAUUUCCCUGCCAGUGAAGAAAUGAACAAAGAAAAUCUGGGCCAGGCAGGCAUCAAAAGAAAUAGUCUUGCGCUCAACCAGAAAGUCUGUAAUCAUUUUAAGGGAA,1.78
8,GUUAACGGUCAUAGGCCAUGGAAACUAGGAGCACCAUUUCUCUGCCAGUGAAGAAAUGAACAAAGAAAAUCUGGGCCAGGCAGGCUUCAAAAGAAAUAGUCUUGCGCUCAACCAGAAAGUCUGUAAUCAUUUUAAGGGUA,1.98
9,GUUAACGGUCAUAGGCCAUGGAAACUAGGAGCACCAUUUUGCUGCCAGUGAAGAAAUGAACAAAGAAAAUCUGGGCCAGGCAGGCAUCAAAAGAAAUAGUCUUGCGCCCAACCAGAAAGUCUGUAAUCAUUUUAAGGGUA,0.02
10,GUUAACGGUCAUAGGCCAUGGAAACUAGGAGCACCAUUUCUCUGCCAGUGAAGAAAUGAACAAAGAAAAUCUGGGCCAGGCAGGCAUCAAGAGAAAUAGUCUUGCGCUCAACCAGAAAGUCUGUAAUCAUUUUAAGGGUA,1.31
11,GUUAACGGUCAUAGGCCAUGGAAACUAGGAGCACCAUUUCACUGCCAGUGAAGUAAUGAACAAAGAAAAUCUGGGCCAGGCAGGCAUCAAAAGAAAUAGUCUUGCGCUCAACCAGAAAGUCUGUAAUCAUUUUAAGGGUA,1.03
12,GUUAACGGUCAUAGGCCAUGGAAACUAGGAGCACCAUUUCACUGCCAGUGAAGAAAUGAACAAAGAAAAUCUGGGCCAGGCAGGCAUCAAAAGAAAUAGUCUUGCGCUCAACCAGAAAGUCUGUAAUCGUUUUAAGGGUA,0.61
13,GUUAACGGUCAUAGGCCAUGGAAACUAGGAGCACCAUUUCCCUGCCAGUGAAGAAAUGAACAAAGAAAAUCUGGGCCAGGCAGGCAUCAAAAGAAAUAGUCUUGCGCUCAGCCAGAAAGUCUGUAAUCAUUUUAAGGGUA,0.02
14,GUUAACGGUCAUAGGCCAUGGAAACUAGGAGCACCAUUUCACUGCCAGUGAAGAAAUGAACAAAGAAAAUCUGGGCCAGGCAGGCAUCAAAAGAAAUAGUCUUGCGCUCAACCAGAGAGUCUGUAAUCAUUUUAAGGGUA,0.44
15,GUUAACGGUCAUAGGCCAUGGAAACUAGGAGCACCAUUUCCCUGCCAGUGAAGAAAUGAACAAAGAAAGUCUGGGCCAGGCAGGCAUCAAAAGAAAUAGUCUUGCGCUCAACCAGAAAGUCUGUAAUCAUUUUAAGGGUA,1.84
16,GUUAACGGUCAUAGGCCAUGGAAACUAGGAGCACCAUUUCUCUGCCAGUGAAGAAAUGAACAAAGAAAAUCUGGGCCGGGCAGGCAUCAAAAGAAAUAGUCUUGCGCUCAACCAGAAAGUCUGUAAUCAUUUUAAGGGUA,0.36
17,GUUAACGGUCAUAGGCCAUGGAAACUAGGAGCACCAUUUCACUGCCAGUGAAGAAAUGAACAAAGAAAAUCUGGGCCAGGCAGGCAUCGAAAGAAAUAGUCUUGCGCUCAACCAGAAAGUCUGUAAUCAUUUUAAGGGUA,2.8
18,GUUAACGGUCAUAGGCCAUGGAAACUAGGAGCACCAUUUCGAUGACAGUGAAGAAAUGAACAAAGAAAAUCUGGGCCAGGCAGGCAUCAAAAGAAAUAGUCUUGCGCUCAACCAGAAAGUCUGUAAUCAUUUUAAGGGUA,1.75
19,GUUAACGGUCAUAGGCCAUGGAAACUAGGAGCACCAUUUCACUGCCAGUGAAGAAAUGAACAAAGAAAAUCUGGGCCAGGCAGGCGUCAAAAGAAAUAGUCUUGCGCUCAACCAGAAAGUCUGUAAUCAUUUUAAGGGUA,1.05
20,GUUAACGGUCAUAGGCCAUGGAAACUAGGAGCACCAUUUCGAUGCCAGUGAAGAAAUGAACAAAGAAAAUCUGGGCCAGGCAGGCAUCAAAAGAAAUGGUCUUGCGCUCAACCAGAAAGUCUGUAAUCAUUUUAAGGGUA,0.37
21,GUUAACGGUCAUAGGCCAUGGAAACUAGGAGCACCAUUUCUCUGCCAGUGGAGAAAUGAACAAAGAAAAUCUGGGCCAGGCAGGCAUCAAAAGAAAUAGUCUUGCGCUCAACCAGAAAGUCUGUAAUCAUUUUAAGGGUA,1.69

row,Variant,self-cleavage
1,GUUAACGGUCAUAGGCCAUGGAAACUAGGAGCACCAUUUCGAUGCCAGUGAAGAAAUGAACAAAGAAAAUCUGGGCCAGGCAGGCAUCAAAAGAAAUAGUCUUGCGCUCGACCAGAAAGUCUGUAAUCAUUUUAAGGGUA,0.16
2,GUUAACGGUCAUAGGCCAUGGAAACUAGGAGCACCAUUUCACUGCCAGUGAAGAAAUGAACAAAGAAAAUCUGGGCCAGGCUGGCAUCAAAAGAAAUAGUCUUGCGCUCAACCAGAAAGUCUGUAAUCAUUUUAAGGGUA,0.14
3,GUUAACGGUCAUAGGCCAUGGAAACUAGGAGCACCAUUUCUCUGCCAGUGAAGAAAUGAACAAAGAAAAUCUGGGCCAGGCGGGCAUCAAAAGAAAUAGUCUUGCGCUCAACCAGAAAGUCUGUAAUCAUUUUAAGGGUA,0.2
4,GUUAACGGUCAUAGGCCAUGGAAACUAGGAGCACCAUUUCACUGCCAGUGAAGAAAUGAACAAAGAAAAUCUGGGCCAGGCAGGCAUCAAAAGAAAUAGUCUUGCGCUCCACCAGAAAGUCUGUAAUCAUUUUAAGGGUA,0.4
5,GUUAACGGUCAUAGGCCAUGGAAACUAGGAGCACCAUUUCACUGCCAGUGAAGAAAUGAACAAAGAAAAUCUGGGCCAGGCAGGCAUCAAAAGAAAUAGUCUUGCGCUCAACCAGAAAGUCUGUAAUCAGUUUAAGGGUA,1.4
6,GUUAACGGUCAUAGGCCAUGGAAACUAGGAGCACCAUUUCACUGCCAGUGAAGAAAUGAACAGAGAAAAUCUGGGCCAGGCAGGCAUCAAAAGAAAUAGUCUUGCGCUCAACCAGAAAGUCUGUAAUCAUUUUAAGGGUA,1.4
7,GUUAACGGUCAUAGGCCAUGGAAACUAGGAGCACCAUUUCACUGCCAGUGAAGAAAUGAACAAGGAAAAUCUGGGCCAGGCAGGCAUCAAAAGAAAUAGUCUUGCGCUCAACCAGAAAGUCUGUAAUCAUUUUAAGGGUA,2.12
8,GUUAACGGUCAUAGGCCAUGGAAACUAGGAGCACCAUUUCUCUGCCAGUGAAGAAAUGAACAAAGAAAAUCUGGGCCAGGCAGGCAUCAAAAGUAAUAGUCUUGCGCUCAACCAGAAAGUCUGUAAUCAUUUUAAGGGUA,1.48
9,GUUAACGGUCAUAGGCCAUGGAAACUAGGAGCACCAUUUCCCUGCCAGUGAAGAAAUGAACAAAGAAAAUCUGGGCCAGGCAGGCAUCAAAAGAAAUAGUCUUGCGCUCAACCAGAAAGUCUGUAAUCAUUUUAGGGGUA,1.81
10,GUUAACGGUCAUAGGCCAUGGAAACUAGGAGCACCAUUUCCCUGCCAGUGAAGAAAUGAACAAAGAAAAUCUGGGCCAGGCAGGCUUCAAAAGAAAUAGUCUUGCGCUCAACCAGAAAGUCUGUAAUCAUUUUAAGGGUA,0.57
11,GUUAACGGUCAUAGGCCAUGGAAACUAGGAGCACCAUUUCACUGCCAGUGAAGAAAUGAACAAAGAAAAUCUGGGCCAGGCAGGCAUCAAAAGAAAUAGUCUCGCGCUCAACCAGAAAGUCUGUAAUCAUUUUAAGGGUA,1.76
12,GUUAACGGUCAUAGGCCAUGGAAACUAGGAGCACCAUUUCACUGCCAGUGAAGAAAUGAACAAAGAAAAUCUGGGCCAGGCAGGCACCAAAAGAAAUAGUCUUGCGCUCAACCAGAAAGUCUGUAAUCAUUUUAAGGGUA,0.63
13,GUUAACGGUCAUAGGCCAUGGAAACUAGGAGCACCAUUUCACUGCCAGUGAAGAAAUGAACAAAGAAAAUCUGGGCCAGGCAGGCAUCAAAAGAAAUAGCCUUGCGCUCAACCAGAAAGUCUGUAAUCAUUUUAAGGGUA,1.52
14,GUUAACGGUCAUAGGCCAUGGAAACUAGGAGCACCAUUUCACUGCCAGUGAAGAAAUGAACAAAGAAAAUCUGGGCCAGGCAGGCAUCAAAAGAAAUAGUCUUGCACUCAACCAGAAAGUCUGUAAUCAUUUUAAGGGUA,0.01
15,GUUAACGGUCAUAGGCCAUGGAAACUAGGAGCACCAUUUCCCUGCCAGUGAGGAAAUGAACAAAGAAAAUCUGGGCCAGGCAGGCAUCAAAAGAAAUAGUCUUGCGCUCAACCAGAAAGUCUGUAAUCAUUUUAAGGGUA,1.59
16,GUUAACGGUCAUAGGCCAUGGAAACUAGGAGCACCAUUUCACUGCCAGUGAAGAAAUGAACAAAGAAAAUCUGGGCCAGGCAGGCAUCAAAAGAAGUAGUCUUGCGCUCAACCAGAAAGUCUGUAAUCAUUUUAAGGGUA,1.7
17,GUUAACGGUCAUAGGCCAUGGAAACUAGGAGCACCAUUUCACUGCCAGUGAAGAAAUGAACAAAGAAAAUCUGGGCCAGGCAGGCAUCAAAAGAAAUAGUCUUGCGCUCAACCAGAAAGUCUGUAAUCAUUUUAAAGGUA,1.2
18,GUUAACGGUCAUAGGCCAUGGAAACUAGGAGCACCAUUUCGAUGCCAGUGAGGAAAUGAACAAAGAAAAUCUGGGCCAGGCAGGCAUCAAAAGAAAUAGUCUUGCGCUCAACCAGAAAGUCUGUAAUCAUUUUAAGGGUA,1.41
19,GUUAACGGUCAUAGGCCAUGGAAACUAGGAGCACCAUUUCACUGCCAGUGAAGAAAUGAACAAAGAAAAUCUGGGCCAGGCAGGCAUCAAAAGAAAUAGUCUUGCGCUCAACUAGAAAGUCUGUAAUCAUUUUAAGGGUA,0.02
20,GUUAACGGUCAUAGGCCAUGGAAACUAGGAGCACCAUUUCACUGCCAGUGAAGAAAUGAACAAAGAGAAUCUGGGCCAGGCAGGCAUCAAAAGAAAUAGUCUUGCGCUCAACCAGAAAGUCUGUAAUCAUUUUAAGGGUA,1.02
